Patent US20230312646A1, “ANTIBACTERIAL PEPTIDES” (priority 2020, published 2023)
Like-named read-outs stand apart in the source and are kept apart here. Square brackets hold non-standard residues; d marks the D form. Cha = N[C@@H](CC1CCCCC1)C(=O)O

Assays:
[1] = biological target: T1, Escherichia coli sliding clamp (bacterial processivity factor, dnaN gene product) (Escherichia coli), P0A988; assay: kinITC
[2] = biological target: T1, Escherichia coli sliding clamp …; assay: ITC, 25 C
[3] = biological target: Acinetobacter baumannii sliding clamp (Acinetobacter baumannii); assay: ITC, 25 C
[4] = biological target: T1, Escherichia coli sliding clamp …; assay: ITC, 25 C; remark: listed apart in the source
[5] = biological target: T2, Pseudomonas aeruginosa sliding clamp (Pseudomonas aeruginosa), Q9I7C4; assay: ITC, 25 C
T2 chain: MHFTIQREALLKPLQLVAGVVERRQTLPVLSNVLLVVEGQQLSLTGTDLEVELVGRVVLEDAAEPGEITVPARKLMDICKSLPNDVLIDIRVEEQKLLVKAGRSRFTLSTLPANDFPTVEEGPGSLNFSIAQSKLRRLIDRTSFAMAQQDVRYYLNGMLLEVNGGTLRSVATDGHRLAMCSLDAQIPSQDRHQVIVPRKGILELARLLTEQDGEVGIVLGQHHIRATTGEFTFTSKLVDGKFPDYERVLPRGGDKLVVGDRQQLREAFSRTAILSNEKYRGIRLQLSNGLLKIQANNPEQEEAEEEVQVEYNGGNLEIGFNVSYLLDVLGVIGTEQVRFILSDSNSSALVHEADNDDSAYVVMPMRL

Binder: Ac-Q[Cha]DLF-OH [Ac-Gln-Cha-Asp-Leu-Phe-OH (peptide 1)]
- koff [1]: 0.0074 s⁻¹
- kon [1]: 40000 M⁻¹ s⁻¹
- Kd [2]: 194 nM
- ΔG [2]: -9.2 kcal/mol
- Kd [3]: 655 nM
- Kd [4]: 170 nM
- Kd [5]: 600 nM
